Test [1] has as its target T1, recombinant human PSMA extracellular domain (ECD) protein (human, UniProt Q04609 44-750).
T1 construct: also called human PSMA ECD
In words: SPR ProteOn.

Test [2] deals with T2, recombinant chimpanzee PSMA extracellular domain (ECD) protein (Pan troglodytes, UniProt Q04609 44-750 (human entry)).
T2 construct: also called Chimp PSMA ECD; PSMG8
T2 chain: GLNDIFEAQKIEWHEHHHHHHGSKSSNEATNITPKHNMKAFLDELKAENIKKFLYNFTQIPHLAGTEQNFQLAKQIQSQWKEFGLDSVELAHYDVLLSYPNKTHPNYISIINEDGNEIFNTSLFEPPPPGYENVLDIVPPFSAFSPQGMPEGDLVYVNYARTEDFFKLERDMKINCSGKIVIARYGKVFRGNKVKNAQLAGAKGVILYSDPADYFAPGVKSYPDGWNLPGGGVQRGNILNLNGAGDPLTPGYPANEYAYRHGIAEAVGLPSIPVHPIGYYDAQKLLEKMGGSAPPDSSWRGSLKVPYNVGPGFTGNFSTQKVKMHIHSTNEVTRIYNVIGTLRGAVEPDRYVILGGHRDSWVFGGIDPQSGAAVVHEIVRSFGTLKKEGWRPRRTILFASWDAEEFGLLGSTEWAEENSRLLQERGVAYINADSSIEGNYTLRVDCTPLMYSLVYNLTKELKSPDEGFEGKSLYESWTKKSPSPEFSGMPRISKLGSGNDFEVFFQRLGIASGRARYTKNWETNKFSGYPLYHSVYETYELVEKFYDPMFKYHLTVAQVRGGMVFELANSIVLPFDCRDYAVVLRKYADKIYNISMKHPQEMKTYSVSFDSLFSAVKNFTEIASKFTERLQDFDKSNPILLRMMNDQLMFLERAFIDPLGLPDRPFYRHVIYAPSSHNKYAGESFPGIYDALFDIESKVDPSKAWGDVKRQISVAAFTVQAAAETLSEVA
Nature of the test: SPR ProteOn.

Test [3] concerns the target T3, recombinant cynomolgous monkey PSMA extracellular domain (ECD) protein (Macaca fascicularis, UniProt Q04609 48-750 (human entry), biotin on the Avi tag).
T3 construct: also called cyno PSMA ECD; PSMG1
T3 chain: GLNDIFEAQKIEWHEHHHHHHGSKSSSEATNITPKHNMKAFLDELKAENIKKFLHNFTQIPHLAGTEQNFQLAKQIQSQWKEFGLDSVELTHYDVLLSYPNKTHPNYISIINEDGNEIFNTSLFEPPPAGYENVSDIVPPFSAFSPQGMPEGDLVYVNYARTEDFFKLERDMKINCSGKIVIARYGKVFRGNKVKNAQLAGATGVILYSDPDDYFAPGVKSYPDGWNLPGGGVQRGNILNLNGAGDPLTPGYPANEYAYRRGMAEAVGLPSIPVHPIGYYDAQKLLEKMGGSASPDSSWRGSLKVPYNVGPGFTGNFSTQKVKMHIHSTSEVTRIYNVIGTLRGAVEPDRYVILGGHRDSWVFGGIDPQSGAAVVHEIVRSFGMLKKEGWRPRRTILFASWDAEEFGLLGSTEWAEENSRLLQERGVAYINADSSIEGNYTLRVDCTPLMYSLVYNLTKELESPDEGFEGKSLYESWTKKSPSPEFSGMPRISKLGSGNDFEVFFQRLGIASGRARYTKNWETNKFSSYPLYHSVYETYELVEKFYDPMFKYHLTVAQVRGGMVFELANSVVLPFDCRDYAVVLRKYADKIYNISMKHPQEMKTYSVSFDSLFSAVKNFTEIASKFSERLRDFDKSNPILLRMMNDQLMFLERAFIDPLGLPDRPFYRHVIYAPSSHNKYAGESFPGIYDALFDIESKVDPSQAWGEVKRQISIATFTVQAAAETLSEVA
In words: SPR ProteOn.

Test [4] concerns the target T1, recombinant human PSMA extracellular …. In words: SPR ProteOn. This is another data set of the same source.
Test [5] has as its target T2, recombinant chimpanzee PSMA …. In words: SPR ProteOn.
Test [6] concerns the target T3, recombinant cynomolgous monkey PSMA …. In words: SPR ProteOn.
Test [7] has as its target T2, recombinant chimpanzee PSMA …. Nature of the test: SPR ProteOn, bsAb captured by anti-Fc. The method, then: The interactions of PSMA×CD3 bispecific mAbs with target (recombinant Chimp, PSMA) were studied by Surface Plasmon Resonance (SPR) using a ProteOn XPR36 system (BioRad). […] Approximately 4400 RU (response units) of anti-Human IgG Fc antibodies were immobilized. The kinetic experiments were performed at 25° C. in running buffer (DPBS+0.03% P20+100 μg/ml BSA). […] The association phase was monitored for 3 minutes at 50 μL/min, then followed by 15 minutes of buffer flow (dissociation phase). The chip surface was regenerated with two 18 second pulses of 100 mM Phosphoric acid (H₃PO₄, Sigma, cat #7961) at 100 μL/min.
The collected data were processed using ProteOn Manager software. First, the data was corrected for background using inter-spots. Then, double reference subtraction of the data was performed by using the buffer injection for analyte injections. The kinetic analysis of the data was performed using a Langmuir 1:1 binding model.

The target in test [8] is T3, recombinant cynomolgous monkey PSMA …. Nature of the test: SPR ProteOn, bsAb captured by anti-Fc.
Test [9] deals with T1, recombinant human PSMA extracellular …. In words: SPR ProteOn, bsAb captured by anti-Fc.

In general, Kd refers to the equilibrium constant for the complex coming apart. The term koff denotes the rate constant with which the complex falls apart. The term kon denotes the rate constant with which the complex forms.

B1: PS3B27 (bispecific antibody, human IgG4 S228P, kappa, lambda, F234A L235A)
heavy 1: not shown
light 1: not shown
heavy 2: EVQLVESGGGLVQPGGSLRLSCAASGFTFNTYAMNWVRQAPGKGLEWVARIRSKYNNYATYYAASVKGRFTISRDDSKNSLYLQMNSLKTEDTAVYYCARHGNFGNSYVSWFAYWGQGTLVTVSSASTKGPSVFPLAPCSRSTSESTAALGCLVKDYFPEPVTVSWNSGALTSGVHTFPAVLQSSGLYSLSSVVTVPSSSLGTKTYTCNVDHKPSNTKVDKRVESKYGPPCPPCPAPEAAGGPSVFLFPPKPKDTLMISRTPEVTCVVVDVSQEDPEVQFNWYVDGVEVHNAKTKPREEQFNSTYRVVSVLTVLHQDWLNGKEYKCKVSNKGLPSSIEKTISKAKGQPREPQVYTLPPSQEEMTKNQVSLTCLVKGFYPSDIAVEWESNGQPENNYKTTPPVLDSDGSFLLYSKLTVDKSRWQEGNVFSCSVMHEALHNHYTQKSLSLSLGK
light 2: QTVVTQEPSLTVSPGGTVTLTCRSSTGAVTTSNYANWVQQKPGQAPRGLIGGTNKRAPGTPARFSGSLLGGKAALTLSGVQPEDEAEYYCALWYSNLWVFGGGTKLTVLGQPKAAPSVTLFPPSSEELQANKATLVCLISDFYPGAVTVAWKADSSPVKAGVETTTPSKQSNNKYAASSYLSLTPEQWKSHRSYSCQVTHEGSTVEKTVAPTECS
notes: IgG4 PAA; PSMA arm chains first, then CD3 arm (F405L, R409K); also called PSMB127 x CD3B219; PS2B27
B1: the Kd in test [1] came to 10.3 nM; in test [2] it was 7.48 nM; in test [3] it was 7 nM; in [4], 10.3 nM; in test [5], 7.48 nM; in test [6], 7 nM. For the same molecule, the values for the Kd in [7], in test [8] and in test [9] were 7.48 nM, 7 nM and 10.3 nM, respectively. The koff in test [1] was found to be 0.00289 s⁻¹; in test [2] it was 0.00156 s⁻¹; in test [3] it was 0.0011 s⁻¹; in [7], 0.00156 s⁻¹; in test [8] it was 0.0011 s⁻¹; in test [9] it was 0.00289 s⁻¹. Besides, the kon is 287000 M⁻¹ s⁻¹ in test [1]; 208000 M⁻¹ s⁻¹ in [2]; 159000 M⁻¹ s⁻¹ in test [3]; 208000 M⁻¹ s⁻¹ in [7]; 159000 M⁻¹ s⁻¹ in test [8]; 287000 M⁻¹ s⁻¹ in test [9].

B2: PS3B25 (bispecific antibody, human IgG4 S228P, kappa, lambda, F234A L235A)
heavy 1: not shown
light 1: not shown
heavy 2: B1 heavy 2
light 2: B1 light 2
notes: IgG4 PAA; also called PSMB87 x CD3B219
For the molecule B2, the Kd worked out at 5.38 nM in test [1]; 3.54 nM in test [2]; 81.1 nM in [3]; 5.38 nM in test [4]; 3.54 nM in [5]; 81.1 nM in [6]. Also, the results for the Kd in test [7], in test [8] and in [9] were 3.54 nM, 81.1 nM and 5.38 nM, respectively. For the same molecule, the koff was determined as 0.00101 s⁻¹ in test [1]; 0.00099 s⁻¹ in [2]; 0.00797 s⁻¹ in test [3]; 0.00099 s⁻¹ in test [7]; 0.00797 s⁻¹ in test [8]; 0.00101 s⁻¹ in test [9]. Also, the kon in test [1] was determined as 188000 M⁻¹ s⁻¹; in test [2], 281000 M⁻¹ s⁻¹; in test [3], 98000 M⁻¹ s⁻¹; in [7], 281000 M⁻¹ s⁻¹; in [8], 98000 M⁻¹ s⁻¹; in test [9], 188000 M⁻¹ s⁻¹.
